Test results published in article PMC9481167, “Biosynthetic proteins targeting the SARS-CoV-2 spike as anti-virals” (PLoS Pathogens, 2022).

Target: receptor binding domain (RBD) of the SARS-CoV-2 spike (SARS-CoV-2, UniProt P0DTC2, biotin (biotinylated; site not stated))
Assay: BLI
Details: both partners purified

B1: VHH H11D4 (VHH)
VHH: QVQLVESGGGLMQAGGSLRLSCAVSGRTFSTAAMGWFRQAPGKEREFVAAIRWSGGSAYYADSVKGRFTISRDKAKNTVYLQMNSLKYEDTAVYYCARTENVRSLLSDYATWPYDYWGQGTQVTVSS
notes: also called VHH11D4
B1: binds.

B2: VHH-72 (VHH)
VHH: QVQLQESGGGLVQAGGSLRLSCAASGRTFSEYAMGWFRQAPGKEREFVATISWSGGSTYYTDSVKGRFTISRDNAKNTVYLQMNSLKPDDTAVYYCAAAGLGTVVSEWDYDYDYWGQGTQVTVSS
B2: binds.
